Experimental data as given in patent US20230159643A1 (H LUNDBECK A S, published 2023).
Positions count from the first letter of the chain named.

T1: human wild type Sortilin on S18-HEK cells (human, UniProt Q99523 78-831)
T1 sequence: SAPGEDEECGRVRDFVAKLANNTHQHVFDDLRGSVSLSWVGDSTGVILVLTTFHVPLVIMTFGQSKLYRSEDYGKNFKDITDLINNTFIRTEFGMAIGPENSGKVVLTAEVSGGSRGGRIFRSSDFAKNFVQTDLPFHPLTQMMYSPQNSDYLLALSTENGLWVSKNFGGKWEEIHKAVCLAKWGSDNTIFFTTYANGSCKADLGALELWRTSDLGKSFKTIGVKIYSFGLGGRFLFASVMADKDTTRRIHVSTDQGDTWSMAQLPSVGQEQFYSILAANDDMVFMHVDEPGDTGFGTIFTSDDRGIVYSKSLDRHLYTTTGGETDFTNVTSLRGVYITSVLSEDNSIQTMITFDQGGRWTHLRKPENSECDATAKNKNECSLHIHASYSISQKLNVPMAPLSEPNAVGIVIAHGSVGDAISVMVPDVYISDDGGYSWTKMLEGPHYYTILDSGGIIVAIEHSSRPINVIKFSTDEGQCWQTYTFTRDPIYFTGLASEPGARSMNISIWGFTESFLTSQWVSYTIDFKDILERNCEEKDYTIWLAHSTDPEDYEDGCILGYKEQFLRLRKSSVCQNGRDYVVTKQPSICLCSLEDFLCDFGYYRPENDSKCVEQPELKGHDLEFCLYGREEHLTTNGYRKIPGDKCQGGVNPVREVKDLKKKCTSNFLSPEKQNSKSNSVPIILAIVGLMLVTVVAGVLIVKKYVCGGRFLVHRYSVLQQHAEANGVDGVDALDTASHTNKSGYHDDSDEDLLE

B1: 044 (antibody, V domains shown)
VH: EVQLLESGGGLVQPGGSLRLSCAASGFTFSSYAMSWVRQAPGKGLEWVSAISGSGGNTYYADSVKGRSTISRDNSKNTLYLQMNSLRAEDTAVYYCASMVRGVFINFDYWGQGTLVTVSS
VL: not shown
B2: 531 (antibody, V domains shown)
VH: EVQLLESGGGLVQPGGSLRLSCAASGFTFSRYVMSWVRQAPGKGLEWVSTISGSGGSTYYADSVKGRFTISRDNSKNTLFLQMNSLRAEDTAVYYCAEGAFGAFDIWGQGTMVTVSS
VL: not shown
B3: 088 (antibody, V domains shown)
VH: EVQLLESGGGLVQPGGSLRLSCAASGFTFSTFAMSWVRQAPGKGLEWVSAISGSGGGTYYADSVKGRFTISRDNSKNTLYLQMNSLRAEDTAVYYCATYIVATIADAFDIWGQGTMVTVSS
VL: not shown
B4: 562 (antibody, V domains shown)
VH: B3 VH with G57S, K76E, T98S, Y99P, V101T, A102V, T103V, I104R, A105G, D106E
VL: not shown
B5: 566 (antibody, V domains shown)
VH: EVQLLESGGGLVQPGGSLRLSCVASGFTFSTFAMSWVRQAPGKGLEWVSAISGSGGSTYYADSVRGRFTVSRDNSKNTLYLQMNSLRAEDTAVYYCASPITMVRGEAFDIWGQGTMVTVSS
VL: not shown
B6: 1276 (antibody, V domains shown)
VH: EVQLLESGGGLVQPGGSLRLSCAASGFTFNTFAMNWVRQAPGKGLEWVSAITGSGGSTYYADSVKGRFTISRDNSKNTLYLQMNSLRAEDTAVYYCATPITVVRGVSAFDIWGQGTMVTVSS
VL: not shown
B7: 1289 (antibody, V domains shown)
VH: B6 VH with N30S, T31S, N35S, T52S, Y80S, V102L, S107G
VL: not shown
B8: 093-01 (antibody, V domains shown)
VH: VVQLLESGGGLVQPGGSLRLSCAASGFTFSSYAMSWVRQAPGKGLEWVSAISGSGGSTYYADSVKGRFTISRDNSMHTLFLQINSLRAEDTAVYYCVAIAAAGTNYFDYWGQGTLVTVSS
VL: not shown
B9: 093-05 (antibody, V domains shown)
VH: B8 VH
VL: not shown
B10: 924 (antibody, V domains shown)
VH: QVQLQESGPGLVKPSQTLSLTCTVSGGSISSGNYYWNWIRQHPGKGLEWIGYIYYSGSTYYNPSLKSRVTISVDTSKNQFSLKLNSVTSADTAVYYCAALITSQNFFFDYWGQGTLVTVSS
VL: not shown
B11: 849 (antibody, V domains shown)
VH: EVQLLESGGGLVQPGGSLRLSCAASGFTFNTFAMNWVRQAPGKGLEWVSAISGSGGSTYYADSVKGRFTISRDNSKNTLYLQMNSLRAEDTAVYYCAALVRGVRDAFDIWGQGTMVTVSS
VL: not shown

Each binder was assayed against T1, human wild type Sortilin on S18-HEK … (assay: cell-based or functional assay).

| Binder | extracellular PGRN in medium of Sortilin over-expressing HEK cells (ELISA), % of untreated control [%] |
| --- | --- |
| B1 | 166 |
| B2 | 140 |
| B3 | 121 |
| B4 | 139 |
| B5 | 139 |
| B6 | 163 |
| B7 | 117 |
| B8 | 116 |
| B9 | 140 |
| B10 | 125 |
| B11 | 149 |
